Test results published in patent US20150086553A1 (SAMSUNG ELECTRONICS, published 2015).
Each block holds one binder with its values, some of them ahead of it.

Key:
[1] = target: T1, Annexin A1 on cancer cells (SNU1, MDA-MB-231) (UniProt P04083 2-346, limits assumed); test: cell-based ELISA on SNU1 and MDA-MB-231 cells, 250/125/25 ng scFv per well, anti-HA-HRP
T1 construct: whole, on cells; Endogenous protein of cancer cell lines said to overexpress Annexin A1; Assay buffer was HBSS(+) with Ca2+ and Mg2+; also called Annexin A1 on cancer cell surfaces; extracellular portion of Annexin A1 in cancer cells
T1 sequence (looked up): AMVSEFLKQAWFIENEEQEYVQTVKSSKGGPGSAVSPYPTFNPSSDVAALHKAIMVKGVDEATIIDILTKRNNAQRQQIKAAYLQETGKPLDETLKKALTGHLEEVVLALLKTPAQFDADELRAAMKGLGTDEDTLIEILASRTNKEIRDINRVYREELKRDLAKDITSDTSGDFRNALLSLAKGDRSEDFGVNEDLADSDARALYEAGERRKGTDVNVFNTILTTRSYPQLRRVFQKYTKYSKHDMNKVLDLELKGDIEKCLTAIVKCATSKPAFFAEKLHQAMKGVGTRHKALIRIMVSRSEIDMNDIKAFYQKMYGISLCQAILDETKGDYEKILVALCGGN
Procedure: The selected Annexin A1-binding scFv was analyzed for binding specificity by cell-based ELISA using the cancer cells SNU1 and MDA-MB-231 in which Annexin A1 is overexpressed.
Briefly, after SNU1 (ATCC) and MDA-MB-231 (ATCC) cancer cells were maintained at 37° C. in RPMI-1640 and DMEM, respectively, under a supply of 5% CO₂, they were seeded at a density of 5×10⁵ cells into 96-well plates (NUNC). Purified proteins from the selected scFv (N32, N33, N43, N46, N48, N314, N36, F2, F4, F5, F6, F8, F10) were added in an amount of 250 ng, 125 ng, or 25 ng to each well, incubated at 4° C. for 90 min, and washed twice with HBSS (+) buffer (Gibco, 14025-092; HBSS containing Ca²⁺ and Mg²⁺; calcium chloride (CaCl₂) 12.6 mM, magnesium chloride 4.9 mM, and magnesium sulfate 4 mM). Thereafter, a 1/200 dilution of an anti-HA-HRP secondary antibody (Santa Cruz), configured to detect an HA tag conjugated to an scFv terminus, was added to in an amount of 50 ul to each well, and incubated for 1 hr. A color was developed for 10 min with the addition of 150 ul of the Super AquaBlue ELISA substrate solution (eBioScience) for the HRP of the secondary antibody. Absorbance was read at 405 nm to determine the binding of scFv to the Annexin A1 on cancer cells.

[2] = target: T2, full-length Annexin A1 protein (346 amino acids; Accession No. NP-000691.1) (human, UniProt P04083 1-346); test: scFv selected by ELISA on plate-coated full-length Annexin A1, anti-HA-HRP detection
T2 construct: Biotinylated for biopanning; coated at 4 ug per well for ELISA
T2 sequence: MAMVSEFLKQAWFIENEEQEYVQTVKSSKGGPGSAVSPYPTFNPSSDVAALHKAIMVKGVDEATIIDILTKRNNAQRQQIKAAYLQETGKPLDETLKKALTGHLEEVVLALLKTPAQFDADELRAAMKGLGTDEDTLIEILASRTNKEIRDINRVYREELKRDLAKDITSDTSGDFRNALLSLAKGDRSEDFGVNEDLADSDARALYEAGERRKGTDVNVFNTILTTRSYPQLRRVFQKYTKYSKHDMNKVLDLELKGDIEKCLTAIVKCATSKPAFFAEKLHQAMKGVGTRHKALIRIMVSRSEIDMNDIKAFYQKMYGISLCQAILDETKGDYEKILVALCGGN

[3] = target: T3, Annexin A1 N-terminal peptide (30 amino acids, biotin conjugated) (biotin conjugated form (position not given)); test: scFv selected by ELISA on biotinylated N-terminal peptide
T3 construct: Synthetic peptide, captured on streptavidin-coated plates for ELISA; also called N-terminal region of Annexin A1; Annexin A1 N-terminus
T3 peptide: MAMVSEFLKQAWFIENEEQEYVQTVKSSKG

[4] = target: T3, Annexin A1 N-terminal peptide (30 amino …); test: scFv selected by ELISA on biotinylated N-terminal peptide on streptavidin plates, anti-HA-HRP detection

B1: scFv F5 (scFv)
scFv: EVQLLESGGGLVQPGGSLRLSCAASGFTFSDYAMSWVRQAPGKGLEWVSGISYGGGNTYYADSVKGRFTISRDNSKNTLYLQMNSLRAEDTAVYYCAKRLGSFDYWGQGTLVTVSSGGGGSGGGGSGGGGSQSVLTQPPSASGTPGRRVTISCTGTSSNIGSNYVSWYRQLPGTAPKLLIYAGNHRPSGVPDRFSGSKSGTSASLAISGLRSEDEADYYCGSWDSSLSAYVFGGGTKLTVLG
notes: also called clone B5
binding result [1]: binds | binding result [2]: binds

B2: scFv F4 (scFv)
scFv: EVQLLESGGGLVQPGGSLRLSCAASGFTFSGYYMSWVRQAPGKGLEWVSSISPSGSSIYYADSVKGRFTISRDNSKNTLYLQMNSLRAEDTAVYYCAKGSPGFDYWGQGTLVTVSSGGGGSGGGGSGGGGSQSVLTQPPSASGAPGQRVTISCSGSSFNIGSNDVSWYQQLPGTAPKLLIYSDSHRPSGVPDRFSGSKSGTSASLAISGLQSEDEADYYCGSWDYSLSAYVFGGGTKLTVLG
binding result [1]: binds | binding result [2]: binds

B3: scFv N34 (scFv)
scFv: EVQLLESGGGLVQPGGSLRLSCAASGFTFSNYAMSWVRQAPGKGLEWVSAIYPGGGSIYYADSVKGRFTISRDNSKNTLYLQMNSLRAEDTAVYYCARRLQIFDYWGQGTLVTVSSGGGGSGGGGSGGGGSQSVLTQPPSASGTPGQRVTISCTGSSSNIGSNNVTWYQQLPGTAPKLLIYSDSHRPSGVPDRFSGSKSGTSASLAISGLQSEDEADYYCGSWDYSLSAYVFGGGTKLTVLG
notes: also called clone C11
binding result [3]: binds

B4: scFv N314 (scFv)
scFv: EVQLLESGGGLVQPGGSLRLSCAASGFTFGGYAMSWVRQAPGKGLEWVSGIYPGGGSTYYADSVKGRFTISRDNSKNTLYLQMNSLRAEDTAVYYCARRLTIFDYWGQGTLVTVSSGGGGSGGGGSGGGGSQSVLTQPPSASGTPGQRVTISCSGSSSNIGNNDVTWYQQLPGTAPKLLIYSDSHRPSGVPDRFSGSKSGTSASLAISGLRSEDEADYYCGTWDDSLSGYVFGGGTKLTVLG
notes: also called clone G11
binding result [1]: binds | binding result [4]: binds

B5: scFv F10 (scFv)
scFv: EVQLLESGGGLVQPGGSLRLSCAASGFTFSDYSMSWVRQAPGKGLEWVSVISPDSSNTYYADSVKGRFTISRDNSKNTLYLQMNSLRAEDTAVYYCAKVTGTCGPRSCYYYDAMDVWGQGTLVTVSSGGGGSGGGGSGGGGSQSVLTQPPSASGTPGQRVTISCSGSSSNIGSNAVSWYQQLPGTAPKLLIYYNSHRPSGVPDRFSGPKSGTSASLAISGLRSEDEADYYCATWDSSLNGYVFGGGTKLTVLG
binding result [1]: binds | binding result [2]: binds

Other lines, results leading:

binding result [1]: binds | binding result [2]: binds
B6: scFv F8 (scFv)
scFv: EVQLLESGGGLVQPGGSLRLSCAASGFTFSSYSMSWVRQAPGKGLEWVSGISPGSGSIYYADSVKGRFTISRDNSKNTLYLQMNSLRAEDTAVYYCARRIHPFDYWGQGTLVAVSSGGGGSGGGGSGGGGSQSVLTQPPSASGTPGQRVTISCTGSSSNIGNNDVSWYQQLPGTAPKLLIYSDNQRPSGVPGRFSGSKSGTSASLAISGLRSEDEADYYCGAWDSSLNAYVFGGGTKLTVLG
notes: also called clone G3

binding result [1]: binds | binding result [2]: binds
B7: scFv F6 (scFv)
scFv: EVQLLESGGGLVQPGGSLRLSCAASGFTFSNYAMSWVRQAPGKGLEWVSSISSNSGNKYYADSVKGRFTISRDNSKNTLYLQMNSLRAEDTAVYYCAKATLGMDHIHAYSAYGMDVWGQGTLVTVSSGGGGSGGGGSGGGGSQSVLTQPPSASGTPGQRATISCTGSSSNIGSNSVSWYQQLPGTAPKLLIYANSNRPSGVPDRFSGSKSGTSASLAISGLRSEDEADYYCAAWDDSLNAYVFGGGTKLTVLG
notes: also called clone C5

binding result [1]: binds | binding result [4]: binds
B8: scFv N32 (scFv)
scFv: EVQLLESGGGLVQPGGSLRLSCAASGFTFSNYAMSWVRQAPGKGLEWVSGIYPNSGSNTYYADSVKGRFTISRDNSKNTLYLQMNSLRAEDTAVYYCARRPTLFDYWGQGTLVTVGSGGGGSGGGGSGGGGSQSVLTQPPSASGTPGQRVTISCTGSSSNIGSNSVNWYQQLPGTAPKLLIYSDSHRPSGVPDRFSGSKSGTSASLAISGLQSEDEADYYCATWDDSLNGYVFGGGTKLTVLG
notes: also called clone C9

binding result [1]: binds | binding result [4]: binds
B9: scFv N43 (scFv)
scFv: EVQLLESGGGLVQPGGSLRLSCAASGFTFSDYSMGWVRQAPGRGLEWVSGIYPSGGNTYYADSVKGRFTISRDNSKNTLYLQMNSLRAEDTAVYYCAKRPSRFDYWGQGTLVAVSSGGGGSGGGGSGGGGSQSVLTQPPSASGTPGQRVTISCTGSSSNIGNNDVNWYQQLPGTAPKLLIYSNSHRPSGVPDRFSGSKSGTSASLAISGLRSEDEADYYCGTWDDSLNGYVFGGGTKLTVLG
